In US8293494:

Tests used:
[1] = biological target: histone H3 dimethylated at lysine 9 (core histones or nucleosomes from HeLa cells), P68431
[2] = biological target: histone H3 monomethylated at lysine 9 (core histones or nucleosomes from HeLa cells), P68431
[3] = biological target: histone H3 trimethylated at lysine 9 (core histones or nucleosomes from HeLa cells), P68431

B1: recombinant JMJD2C (aa 12-349) (protein)
chain: PSCKIMTFRPSMEEFREFNKYLAYMESKGAHRAGLAKVIPPKEWKPRQCYDDIDNLLIPAPIQQMVTGQSGLFTQYNIQKKAMTVKEFRQLANSGKYCTPRYLDYEDLERKYWKNLTFVAPIYGADINGSIYDEGVDEWNIARLNTVLDVVEEECGISIEGVNTPYLYFGMWKTTFAWHTEDMDLYSINYLHFGEPKSWYAIPPEHGKRLERLAQGFFPSSSQGCDAFLRHKMTLISPSVLKKYGIPFDKITQEAGEFMITFPYGYHAGFNHGFNCAESTNFATVRWIDYGKVAKLCTCRKDMVKISMDIFVRKFQPDRYQLWKQGKDIYTIDHTKPT
In the case of B1, the “in vitro demethylation assay, Western blot with α-dimethyl H3K9” value [1] is reported as “the methylation status of mono- and dimethyl H3K9 is not altered”, the “in vitro demethylation assay, Western blot with α-monomethyl H3K9” value [2] is reported as “the methylation status of mono- and dimethyl H3K9 is not altered” and the “in vitro demethylation assay, Western blot with α-trimethyl H3K9” value [3] is reported as “Recombinant JMJD2C very efficiently demethylates trimethyl H3K9 on both core histones and nucleosomes in vitro”.

B2: mutant JMJD2C H190A (aa 12-349) (protein)
chain: PSCKIMTFRPSMEEFREFNKYLAYMESKGAHRAGLAKVIPPKEWKPRQCYDDIDNLLIPAPIQQMVTGQSGLFTQYNIQKKAMTVKEFRQLANSGKYCTPRYLDYEDLERKYWKNLTFVAPIYGADINGSIYDEGVDEWNIARLNTVLDVVEEECGISIEGVNTPYLYFGMWKTTFAWATEDMDLYSINYLHFGEPKSWYAIPPEHGKRLERLAQGFFPSSSQGCDAFLRHKMTLISPSVLKKYGIPFDKITQEAGEFMITFPYGYHAGFNHGFNCAESTNFATVRWIDYGKVAKLCTCRKDMVKISMDIFVRKFQPDRYQLWKQGKDIYTIDHTKPT
B2 was tested, and the “in vitro demethylation assay, Western blot with α-trimethyl H3K9” value [3] was “the enzymatically impaired mutant JMJD2C H190A fails to demethylate”.
